The labels stand for the following.
B1: AFLHVGQDGLELPTS peptide (15-mer, position 1 Ala) (peptide)
peptide: AFLHVGQDGLELPTS
notes: numbers count on: the peptide; Spot on a cellulose membrane; also called Nt-Ala (SPOT array); source: synthetic peptide, synthesized on cellulose membrane (SPOT array)
B2: TFLHVGQDGLELPTS peptide (15-mer, position 1 Thr) (peptide)
peptide: TFLHVGQDGLELPTS
notes: numbers count on: the peptide; Spot on a cellulose membrane; also called Nt-Thr (SPOT array); source: synthetic peptide, synthesized on cellulose membrane (SPOT array)
B3: SFLHVGQDGLELPTS peptide (15-mer, position 1 Ser) (peptide)
peptide: SFLHVGQDGLELPTS
notes: numbers count on: the peptide; Spot on a cellulose membrane; also called Nt-Ser (SPOT array); source: synthetic peptide, synthesized on cellulose membrane (SPOT array)
B4: GFLHVGQDGLELPTS peptide (15-mer from the N-terminus of ZNF701) (peptide)
peptide: GFLHVGQDGLELPTS
notes: 15-mer derived from the N-terminus of ZNF701; Spot on a cellulose membrane; also called Nt-Gly (SPOT array); source: synthetic peptide, synthesized on cellulose membrane (SPOT array)

The results in this text go back to PMC9741652, “CRL2^ZER1/ZYG11B recognizes small N-terminal residues for degradation” (Nature Communications, 2022).

T2 sequence (Q9C0D3 490-744): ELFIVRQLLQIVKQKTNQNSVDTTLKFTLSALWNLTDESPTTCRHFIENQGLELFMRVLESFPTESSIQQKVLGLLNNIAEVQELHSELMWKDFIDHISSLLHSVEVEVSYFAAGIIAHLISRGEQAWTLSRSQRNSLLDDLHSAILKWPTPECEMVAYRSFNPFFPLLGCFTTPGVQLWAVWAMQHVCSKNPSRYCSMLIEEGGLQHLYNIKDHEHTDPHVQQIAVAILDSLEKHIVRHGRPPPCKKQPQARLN

The target of one test is T1, GST-fused ZER1 (residues 469–766) (human, UniProt Q7Z7L7 469-766).
T1 construct: ZER1, human, residues 469-766; Vector pACYC-GST is Addgene Plasmid #62329; also called GST-tagged ZER1_(469–766); source: purified; cloned into pACYC-GST
T1 sequence (Q7Z7L7 469-766): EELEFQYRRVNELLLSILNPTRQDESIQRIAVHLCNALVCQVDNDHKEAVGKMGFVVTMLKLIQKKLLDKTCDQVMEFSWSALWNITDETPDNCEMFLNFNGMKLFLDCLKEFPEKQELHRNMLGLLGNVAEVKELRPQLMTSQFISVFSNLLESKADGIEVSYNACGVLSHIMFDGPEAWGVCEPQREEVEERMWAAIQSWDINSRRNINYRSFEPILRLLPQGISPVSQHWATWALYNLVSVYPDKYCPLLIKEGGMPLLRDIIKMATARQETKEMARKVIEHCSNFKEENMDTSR
Kind of test: peptide or protein array; peptide SPOT array on cellulose membrane; purified GST-tagged ZER1 (50 nM) or ZYG11B (230 nM) in 10% glycerol, 0.1 M KCl, 1 mM EDTA, 20 mM HEPES pH 7.5, 1 h at room temperature; detected with anti-GST by chemiluminescence. The settings on record: both partners purified.
As to B1, the binding result is given as “binds”.
On the same count and under the same terms, under B2 stands “binds”; under B3, “binds”.

Another test concerns the target T2, GST-fused ZYG11B (residues 490–744) (UniProt Q9C0D3 490-744).
T2 construct: ZYG11B, residues 490-744; Vector pACYC-GST is Addgene Plasmid #62329; also called GST-tagged ZYG11B_(490–744); source: purified; cloned into pACYC-GST
The description is as above. Conditions: both partners purified.
As to B1, the binding result was “binds”.
Same read-out and setting: under B4 stands “binds”; under B3, “binds”.
